Experimental data: patent US20220025032A1 (Novartis, published 2022)
Read-outs that look alike come from different tables or passages of the source.

Tests used:
Human BTC = target: T1, Human BTC (human, UniProt P35070 32-111); assay: sandwich ELISA: BTC coated, Fab titrated, detection with VEGF-biotin (bridging readout)
T1 construct: Soluble human BTC of the Biacore, ELISA, MSD and cell assays; also called human betacellulin; soluble human BTC
T1 sequence: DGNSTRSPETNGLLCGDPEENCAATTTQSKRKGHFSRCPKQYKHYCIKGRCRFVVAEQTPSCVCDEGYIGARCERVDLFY
Experimental: A sandwich enzyme linked immunosorbent assay (ELISA) was performed by coating either BTC or VEGF, then adding a titration of NVS11 followed by detection with the second target, either biotinylated BTC or biotinylated VEGF. […] Neither of the single Fabs, NVS1 or NVS8, could bind to both BTC and VEGF at the same time.

Human VEGF165 [1] = target: T2, Human VEGF165 (human, UniProt P15692 27-191); assay: competition ELISA: antibody pre-incubated with 400 pM VEGF-biotin, added to coated VEGFR2, streptavidin-HRP detection; y axis OD
T2 construct: mature; biotinylated in the VEGFR2 ELISAs; also called human VEGF-A; VEGF-A
Experimental: (§1) The plates were then washed 3 times using 1λTBST. The plates were blocked in 2% BSA diluent (0.1% Tween 20/0.1% TirtonX100) overnight. After blocking, the plates were washed 3 times using TB ST and then the sample mixture was added at 20 μl/well. The sample mixture consisted a final fixed concentration of VEGF-biotin (in-house) at 400 pM and a 15 point 1:2 serial dilution of the antibody starting at 20 nM. The sample mixture was pre-incubated for 1 hour prior to adding to the plate and then incubated for another hour at room temperature on the plate. Afterwards, the plate was washed 3 times using TBST and 20 μl/well of Streptavidin-HRP diluted at 1:5000 was added for an incubation time of 1 hour. The plates were washed 3 times in TBST and then 20 μl/well of TMB substrate was added. TMB is a chromogen that yields a blue color when oxidized. TMB was incubated for 10 minutes until the signal saturated in the no antibody samples, and then 10 μl/well of 2N sulfuric acid was added which then changes the blue color to yellow and this now has a maximum absorbance at 450 nm.

Human VEGF165 [2] = target: T2, Human VEGF165; assay: SPR Biacore T200, anti-Fab capture, antigen as analyte (cells shifted left after the merged BTC cell)
Human VEGF165 [3] = target: T2, Human VEGF165; assay: competition ELISA: antibody pre-incubated with biotinylated human VEGF, added to coated human VEGFR2-Fc, streptavidin-HRP detection; blocked partner VEGFR2-Fc
Experimental: NVS11 neutralization of VEGF was determined by ELISA. Various concentrations of NVS11 was pre-incubated with biotinylated human VEGF and added to VEGFR2-Fc coated plates.

Human VEGF165 [4] = target: T2, Human VEGF165; assay: competition ELISA: antibody pre-incubated with 400 pM VEGF-biotin, added to coated VEGFR2, streptavidin-HRP detection; y axis OD; remark: listed apart in the source
Experimental: as §1

Human VEGF165 [5] = target: T2, Human VEGF165; assay: as above; remark: listed apart in the source
Experimental: as §1

[6] = target: T3, membrane-bound human BTC on 293F-hBTC cells (human, UniProt P35070 32-111); assay: flow cytometry on 293F cells with membrane-bound human BTC, anti-human Fab detection
T3 construct: the transfected construct is not described; also called membrane-anchored BTC
T3 sequence: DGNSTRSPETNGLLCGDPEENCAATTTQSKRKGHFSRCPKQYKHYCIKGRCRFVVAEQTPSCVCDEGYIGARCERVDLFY
Experimental: After washing the cells, the cells were dissociated using Versene at 37° C. The cells were washed with FACS buffer and plated at 100 μl in a 96 well plate using cells at 1×10⁶ cells/ml. Then 100 μl of a serial dilution of antibodies starting at 50 nM was used. The cells were incubated, washed and then treated with the secondary anti-human Fab-FITC antibody. The antibodies only bound to the cells expressing BTC. After which the cells were washed and analyzed on the Attune Flow Cytometry. All data analysis was carried out using Flow Jo software.

Human BTC-avitag-biotin = target: T4, Human BTC-avitag-biotin (human, UniProt P35070 32-111, biotin on the avitag); assay: flow cytometry, BTC-ErbB4 Cell Binding Inhibition with HKB11 cells over-expressing human ErbB4
T4 construct: also called biotin-BTC; soluble human BTC-avitag-biotin
T4 sequence: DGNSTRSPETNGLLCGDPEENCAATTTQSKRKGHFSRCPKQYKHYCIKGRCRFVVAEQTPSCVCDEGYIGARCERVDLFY
Experimental: In order to assess potency of the Fabs and bispecific in neutralizing binding of BTC to its receptor Erb 1 or ErbB4, the following assay was performed. HKB11 over-expressing either ErbB1 or ErbB4 cells were plated 1×10⁵ cells/well. Cells were washed once with FACS buffer by spun down at 1200 rpm for 5 minutes and supernatant removed. Next, the Fab sample dilutions and BTC were prepared in FACS buffer. Human BTC-avitag-biotin was diluted to a fixed concentration of 15 nM. The test Fab samples were prepared at a starting concentration of 40 nM and titrated for 9 points at a serial dilution of 1:2. Both biotin-BTC and the test Fab samples are incubated for 30 minutes at room temperature. The pre-incubated samples were then added to the cell plate at 100 μl per well in duplicate and incubated for 1 hour on ice. […]
Measurements were performed on Attune Flow Cytometry machine. Data were analysed using the Flow Jo software. The live cell populations analysed were gated in forward and side scattering (FSC-A/SSC-A dot plot). The interval gate was established on the control histogram, which was obtained with sample incubated in streptavidin-Alexa Fluor488 only, and subsequently, determined percent of positive binding events of cells carrying membrane-bound receptor ErbB1 or ErbB4 and biotin-BTC. The median of fluorescence intensity (MFI) value was also derived for the live cell population. […]

T2 sequence (P15692 other isoform, or with tags, fused parts or gaps): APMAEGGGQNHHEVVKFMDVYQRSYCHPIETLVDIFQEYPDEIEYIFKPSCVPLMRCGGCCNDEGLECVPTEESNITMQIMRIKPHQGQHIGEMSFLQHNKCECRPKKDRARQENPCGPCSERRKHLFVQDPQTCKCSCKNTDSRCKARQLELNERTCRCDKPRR

B1: NVS8 (Fab, V domains shown)
VH: EVQLVESGGGLVQPGGSLRLSCTASGFSLTDYYYMTWVRQAPGKGLEWVGFIDPDDDPYYATWAKGRFTISRDNSKNTLYLQMNSLRAEDTAVYYCAGGDHNSGWGLDIWGQGTLVTVSS
VL: EIVMTQSPSTLSASVGDRVIITCQASEIIHSWLAWYQQKPGKAPKLLIYLASTLASGVPSRFSGSGSGAEFTLTISSLQPDDFATYYCQNVYLASTNGANFGQGTKLTVLK
notes: Fab version of the anti-VEGF 1008 scFv; also called anti-VEGF Fab
Question: Which results are given for B1?
Answer: binding result (Human BTC): no binding (tested: about 10-20 nM (last marker hidden)); IC50 (Human VEGF165 [1]): 1.35 nM; Kd (Human VEGF165 [2]): 0.003 nM; IC50 (read off the curve) (Human VEGF165 [3]): ~0.7 nM; IC50 (Human VEGF165 [4]): 1.35 nM; IC50 (Human VEGF165 [5]): 0.737 nM; binding result [6]: no binding (tested: about 25 nM); binding result (Human BTC-avitag-biotin): no binding (tested: about 25 nM)
